The results in this text go back to patent US20080267908A1 (YEDA RESEARCH AND DEVELOPMENT, published 2008).

Series [1] addresses T1, 125I-IL-32 (radio-iodinated IL-32).
T1 chain: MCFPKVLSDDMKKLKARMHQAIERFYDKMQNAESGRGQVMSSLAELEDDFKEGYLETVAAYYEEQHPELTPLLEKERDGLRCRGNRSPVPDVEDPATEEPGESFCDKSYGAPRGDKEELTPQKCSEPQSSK

For series [2], the target named is T2, commercially available human neutrophil derived PR-3 (Athens Research and Technology), active (human, UniProt P24158 28-248).
T2 construct: mature; Bought; purified from human neutrophils; also called commercial PR-3; commercially available PR-3
T2 sequence (looked up): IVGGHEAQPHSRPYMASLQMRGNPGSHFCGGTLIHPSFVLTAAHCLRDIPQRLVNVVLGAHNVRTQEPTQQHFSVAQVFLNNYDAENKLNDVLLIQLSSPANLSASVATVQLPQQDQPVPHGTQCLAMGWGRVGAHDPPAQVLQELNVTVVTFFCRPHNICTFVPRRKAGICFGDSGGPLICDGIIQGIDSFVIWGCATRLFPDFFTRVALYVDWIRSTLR
In words: SPR (BIAcore), IL-32 immobilized; commercial neutrophil-derived PR-3, active (FIG. 3A). As to the method: (§1) FIG. 2 A. IL-32 (20 μg/ml) in acetate buffer pH 4.6) was immobilized to a single channel of a BIAcore chip as recommended by the manufacturer (Amersham Pharmacia, Uppsala Sweden). […] The resulting kD was 7.9×10⁻⁸ M.
(§2) For details see FIG. 2. The binding data gave a kD of 1.2×10⁻⁸ M with active PR-3, which considerably degraded the immobilized IL-32 (FIG. 3 A). The kD of commercially available PR-3 that was inactivated by PMSF (FIG. 3 B) was 3.5×10⁻⁸ M.
(§3) IL-32 (20 μg/ml) in acetate buffer pH 4.6) was immobilized to a single channel of a BIAcore chip as recommended by the manufacturer (Amersham Pharmacia, Uppsala Sweden). […] The same analysis was done with PR-3 that was inactivated by PMSF (1 mM) (FIG. 2B). The resulting kD was 7.9×10⁻⁸ M. The same analysis was done with a commercially available human neutrophil derived PR-3 (Athens Research and Technology, Athens Ga., 0.5 μg in 20 μl gelatin solution) (FIG. 3A). The resulting kD was 1.2×10⁻⁸ M. The binding was repeated with commercial PR-3 that was inactivated by PMSF (FIG. 3B). The resulting kD was 3.5×10⁻⁸ M.
(In general: In SPR one partner is held on a chip, and binding of the other changes the refractive index at the surface.)

Series [3] concerns the target T3, human urinary PR-3 inactivated by phenyl methyl sulfonyl fluoride (PMSF) (human, UniProt P24158 28-248, inactivated by PMSF (1 mM); the modified residue is not stated).
T3 construct: mature; Same preparation as the urinary PR-3, treated with PMSF before the assay; also called PMSF pretreated urinary PR-3
T3 sequence (looked up): T2 sequence (looked up)
Kind of series: SPR (BIAcore), IL-32 immobilized; urinary PR-3 inactivated by PMSF (1 mM) (FIG. 2B). As to the method:
as §1, §3

In series [4] the target is T4, commercially available human PR-3 (Athens Research and Technology) inactivated by PMSF (human, UniProt P24158 28-248, inactivated by PMSF; the modified residue is not stated).
T4 construct: mature; Same product as the commercial PR-3, treated with PMSF before the assay; also called PMSF pretreated commercial PR-3
T4 sequence (looked up): T2 sequence (looked up)
Kind of series: SPR (BIAcore), IL-32 immobilized; commercial PR-3 inactivated by PMSF (FIG. 3B). How it is done: as §1, §2, §3

The target of series [5] is T5, human urinary Proteinase-3 (PR-3), affinity purified (elution fraction 3 of the IL-32 column), active (human, UniProt P24158 28-248).
T5 construct: mature; also called urinary PR-3; urinary PR3
T5 sequence (looked up): T2 sequence (looked up)
Kind of series: SPR (BIAcore), IL-32 immobilized, PR-3 at 10-80 nM; urinary PR3, active (FIG. 2A). How it is done: as §1, §3

In general, Kd refers to the concentration at which binding is half-saturated. High values mean a looser complex, low ones a tighter complex.

B1: human urinary Proteinase-3 (PR-3), affinity purified (elution fraction 3 of the IL-32 column), active (protein)
chain: T2 sequence (looked up)
As for B1, the “cleavage of 125I-IL-32 (SDS-PAGE, autoradiography)” value (“cleavage” below) in series [1] is “the 20 kDa band completely disappeared and the levels of the 16 and 13 kDa IL-32 cleavage products increased after a 5 min. incubation with PR-3”.

B2: commercially available human neutrophil derived PR-3 (Athens Research and Technology), active (protein)
chain: T2 sequence (looked up)
For B2, in series [1], the “cleavage” value is recorded as “the commercial PR-3 is more potent than the urinary PR-3, leading to complete disappearance of the 20 kDa IL-32 band within 1 min”.

B3: human urinary PR-3 inactivated by phenyl methyl sulfonyl fluoride (PMSF) (protein)
chain: T2 sequence (looked up)
In the case of B3, the “cleavage” value in series [1] is given as “no cleavage products were observed with PMSF pretreated PR-3 incubated with IL-32”.

B4: commercially available human PR-3 (Athens Research and Technology) inactivated by PMSF (protein)
chain: T2 sequence (looked up)
As for B4, in series [1], the “cleavage” value is “no cleavage products were observed with PMSF pretreated PR-3 incubated with IL-32”.

B5: recombinant human IL-32α produced in E. coli (ligand)
chain: T1 chain
notes: also called hrIL-32; human recombinant IL-32
B5: the equilibrium dissociation constant (Kd) amounted to 12 nM in series [2], 79 nM in series [3], 35 nM in series [4] and 26.5 nM in series [5].
